Numbered stars: 1 amine (or outer) side, 2 acyl side, 3 side chain; on linkers, the order of the positions; unused ones are H or OH. Bridge positions count the residues as written; N and C are the ends. Square brackets hold non-standard residues; d marks the D form. Ends that are not written are not given here. TBMB = c1c(C[*:1])cc(C[*:3])cc1C[*:2]; Fl = fluorescein; Sar = CNCC(=O)O
What was measured:
[1] = molecular target: T1, human integrin αvβ3 (human, UniProt P06756 31-992; P05106 27-718, limits assumed); test: human FP direct binding; n=2
T1 sequence (P06756 31-992 limits assumed, chain 1 of 2): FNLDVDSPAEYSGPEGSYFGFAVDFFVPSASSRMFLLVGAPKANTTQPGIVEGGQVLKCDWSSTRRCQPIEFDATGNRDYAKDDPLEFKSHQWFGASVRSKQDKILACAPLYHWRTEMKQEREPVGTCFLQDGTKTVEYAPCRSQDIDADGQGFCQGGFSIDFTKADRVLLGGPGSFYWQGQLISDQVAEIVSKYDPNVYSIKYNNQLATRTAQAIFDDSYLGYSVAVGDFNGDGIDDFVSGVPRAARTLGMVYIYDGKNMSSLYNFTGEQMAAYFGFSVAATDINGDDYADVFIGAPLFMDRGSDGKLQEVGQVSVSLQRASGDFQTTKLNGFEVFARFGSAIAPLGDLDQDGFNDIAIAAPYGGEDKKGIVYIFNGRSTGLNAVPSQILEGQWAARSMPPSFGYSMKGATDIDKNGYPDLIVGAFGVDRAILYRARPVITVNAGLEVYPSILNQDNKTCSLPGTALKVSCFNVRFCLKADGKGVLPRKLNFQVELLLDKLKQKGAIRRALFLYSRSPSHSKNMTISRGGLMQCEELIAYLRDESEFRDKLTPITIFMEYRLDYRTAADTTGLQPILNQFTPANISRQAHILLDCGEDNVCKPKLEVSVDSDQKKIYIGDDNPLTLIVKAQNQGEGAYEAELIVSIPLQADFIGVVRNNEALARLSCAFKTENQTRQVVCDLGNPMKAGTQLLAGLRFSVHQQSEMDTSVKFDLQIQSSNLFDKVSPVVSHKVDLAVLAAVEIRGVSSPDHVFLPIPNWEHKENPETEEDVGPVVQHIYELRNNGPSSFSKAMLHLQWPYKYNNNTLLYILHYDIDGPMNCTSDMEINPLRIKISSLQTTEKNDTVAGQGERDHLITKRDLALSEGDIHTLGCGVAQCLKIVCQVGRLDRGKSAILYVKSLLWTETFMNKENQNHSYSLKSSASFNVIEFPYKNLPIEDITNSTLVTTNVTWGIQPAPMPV
T1 sequence (P05106 27-718 limits assumed, chain 2 of 2): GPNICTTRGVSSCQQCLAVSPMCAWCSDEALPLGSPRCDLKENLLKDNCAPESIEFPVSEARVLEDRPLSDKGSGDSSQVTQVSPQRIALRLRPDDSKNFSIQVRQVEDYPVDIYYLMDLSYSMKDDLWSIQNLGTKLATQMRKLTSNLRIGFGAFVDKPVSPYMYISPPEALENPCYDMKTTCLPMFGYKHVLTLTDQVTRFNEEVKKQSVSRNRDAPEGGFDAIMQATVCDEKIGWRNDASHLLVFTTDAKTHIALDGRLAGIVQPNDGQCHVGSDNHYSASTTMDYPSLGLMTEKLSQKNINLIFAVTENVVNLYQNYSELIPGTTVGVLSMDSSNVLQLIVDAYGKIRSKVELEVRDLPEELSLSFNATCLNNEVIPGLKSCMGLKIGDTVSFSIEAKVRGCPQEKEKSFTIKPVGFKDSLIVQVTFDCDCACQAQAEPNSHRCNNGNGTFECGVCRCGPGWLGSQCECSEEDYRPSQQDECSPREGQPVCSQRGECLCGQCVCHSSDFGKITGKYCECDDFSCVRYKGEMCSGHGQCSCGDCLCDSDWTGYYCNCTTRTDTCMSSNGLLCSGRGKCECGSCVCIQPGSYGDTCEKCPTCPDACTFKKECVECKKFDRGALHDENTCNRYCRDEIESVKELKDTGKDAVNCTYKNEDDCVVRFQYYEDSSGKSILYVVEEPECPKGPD

[2] = molecular target: T1, human integrin αvβ3; test: human FP direct binding; column 'Mean', n=2
[3] = molecular target: T1, human integrin αvβ3; test: human FP direct binding; column 'Mean', n=9

Binder	Kd [1] [nM]	Kd [2] [nM]	Kd [3] [nM]
Fl-G[Sar][Sar][Sar][Sar][Sar]ACLDHMECRGDMDC (linker 8-14-20 via TBMB, Fluorescent bicyclic peptide) [BCY2573]	1	1	–
Ac-CILRPNCDLDGRCA[Sar][Sar][Sar][Sar][Sar][Sar]K (linker 1-7-13 via TBMB; not fully specified (residue 21); also: Fl on the C-terminal K, Fluorescent bicyclic peptide) [BCY2577]	2	2	–
ACLDHMECRGDMDCAXXXXXXK (Sar6 (six sarcosines); fluorescein (Fl) on the C-terminal K; Ci, Cii and Ciii bound to the TBMB scaffold, Fluorescent bicyclic peptide) [BCY2572]	–	–	9

From US20220119488A1, “BICYCLIC PEPTIDE LIGANDS SPECIFIC FOR INTEGRIN ALPHA-V-BETA-3” (priority 2019, published 2022)
